Measured values published in patent US20140072613A1 (published 2014).

T1: Txk(h) (human, UniProt P42681 1-527, limits assumed)
T1 sequence (looked up): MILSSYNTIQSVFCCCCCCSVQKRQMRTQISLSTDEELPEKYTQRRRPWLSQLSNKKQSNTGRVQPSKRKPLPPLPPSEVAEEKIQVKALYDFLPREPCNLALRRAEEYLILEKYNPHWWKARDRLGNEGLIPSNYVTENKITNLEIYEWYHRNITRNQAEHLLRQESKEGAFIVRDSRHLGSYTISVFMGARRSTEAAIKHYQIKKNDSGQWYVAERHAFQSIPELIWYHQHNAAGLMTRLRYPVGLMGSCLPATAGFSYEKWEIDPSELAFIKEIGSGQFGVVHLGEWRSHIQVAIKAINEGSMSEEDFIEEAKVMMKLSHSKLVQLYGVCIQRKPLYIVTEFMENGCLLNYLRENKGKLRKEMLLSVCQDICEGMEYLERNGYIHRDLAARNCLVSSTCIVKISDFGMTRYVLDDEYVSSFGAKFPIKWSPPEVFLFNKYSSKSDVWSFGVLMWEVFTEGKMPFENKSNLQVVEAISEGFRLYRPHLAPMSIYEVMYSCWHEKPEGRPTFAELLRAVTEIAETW

T2: Itk(h) (human, UniProt Q08881 352-620, limits assumed)
T2 sequence (looked up): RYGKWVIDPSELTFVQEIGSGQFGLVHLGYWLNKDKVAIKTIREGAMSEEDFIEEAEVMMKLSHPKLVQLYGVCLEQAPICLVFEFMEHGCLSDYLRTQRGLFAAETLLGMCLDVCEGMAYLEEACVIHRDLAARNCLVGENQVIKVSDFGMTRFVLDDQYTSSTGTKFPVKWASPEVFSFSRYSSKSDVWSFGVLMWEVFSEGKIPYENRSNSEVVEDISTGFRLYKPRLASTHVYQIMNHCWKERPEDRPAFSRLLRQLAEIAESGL

T3: IKKβ(h) (human, UniProt O14920 1-756)
T3 sequence (looked up): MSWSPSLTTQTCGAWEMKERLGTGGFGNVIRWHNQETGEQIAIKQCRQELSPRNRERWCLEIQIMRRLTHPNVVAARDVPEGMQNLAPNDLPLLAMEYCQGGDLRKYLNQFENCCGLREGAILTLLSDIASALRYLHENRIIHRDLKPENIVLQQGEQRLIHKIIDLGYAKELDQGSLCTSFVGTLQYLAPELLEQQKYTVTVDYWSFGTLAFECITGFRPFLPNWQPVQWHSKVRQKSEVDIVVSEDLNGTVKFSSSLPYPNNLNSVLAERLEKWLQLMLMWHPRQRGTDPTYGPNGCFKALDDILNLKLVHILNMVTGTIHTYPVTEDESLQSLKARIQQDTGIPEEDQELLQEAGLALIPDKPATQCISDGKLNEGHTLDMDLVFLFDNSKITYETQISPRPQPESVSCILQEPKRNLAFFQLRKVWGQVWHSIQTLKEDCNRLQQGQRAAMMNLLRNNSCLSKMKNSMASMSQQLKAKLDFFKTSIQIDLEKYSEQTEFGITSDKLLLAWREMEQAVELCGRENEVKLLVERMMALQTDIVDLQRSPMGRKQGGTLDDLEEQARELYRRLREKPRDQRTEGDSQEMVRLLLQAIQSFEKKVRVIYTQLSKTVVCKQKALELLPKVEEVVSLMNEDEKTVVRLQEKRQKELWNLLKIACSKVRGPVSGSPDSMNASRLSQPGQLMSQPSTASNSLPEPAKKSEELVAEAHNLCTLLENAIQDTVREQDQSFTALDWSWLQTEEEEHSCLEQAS

T4: TAO3(h) (human, UniProt Q9H2K8 1-314, limits assumed)
T4 sequence (looked up): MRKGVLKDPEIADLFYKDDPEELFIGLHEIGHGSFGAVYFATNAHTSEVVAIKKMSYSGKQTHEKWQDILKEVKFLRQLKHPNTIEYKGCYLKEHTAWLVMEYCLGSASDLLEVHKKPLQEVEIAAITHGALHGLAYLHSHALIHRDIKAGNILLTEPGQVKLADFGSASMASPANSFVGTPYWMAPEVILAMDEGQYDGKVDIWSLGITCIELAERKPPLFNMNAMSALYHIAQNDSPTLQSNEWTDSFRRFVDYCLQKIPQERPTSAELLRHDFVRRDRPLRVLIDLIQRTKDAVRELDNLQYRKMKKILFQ

T5: Fms(Y969C)(h) (human, UniProt P07333 538-972, limits assumed)
T5 sequence (looked up): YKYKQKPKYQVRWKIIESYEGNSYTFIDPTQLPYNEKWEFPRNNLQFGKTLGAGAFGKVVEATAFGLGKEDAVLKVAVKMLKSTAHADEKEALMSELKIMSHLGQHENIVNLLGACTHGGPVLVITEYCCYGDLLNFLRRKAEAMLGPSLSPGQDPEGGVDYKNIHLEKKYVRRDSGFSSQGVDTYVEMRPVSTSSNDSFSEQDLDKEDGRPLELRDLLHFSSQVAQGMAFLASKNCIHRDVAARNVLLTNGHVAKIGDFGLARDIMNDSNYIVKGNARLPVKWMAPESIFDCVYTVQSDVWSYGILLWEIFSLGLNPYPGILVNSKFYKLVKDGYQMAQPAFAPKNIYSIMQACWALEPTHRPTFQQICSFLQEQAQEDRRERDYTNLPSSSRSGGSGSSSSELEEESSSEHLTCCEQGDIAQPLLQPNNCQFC


How the values were obtained:
Assay in all cases: cell-based or functional assay
TrkB(h) = TrkB(h) (human, UniProt Q16620 455-822, limits assumed)
Txk(h) = target: T1, Txk(h)
PKCβII(h) = PKCβII(h) (human, UniProt P05771-2 1-673)
MST3(h) = MST3(h) (human, UniProt Q9Y6E0 1-443, limits assumed)
Itk(h) = target: T2, Itk(h)
FGFR2(h) = FGFR2(h) (human, UniProt P21802 456-770, limits assumed)
IKKβ(h) = target: T3, IKKβ(h)
TAO3(h) = target: T4, TAO3(h)
MAPK2(h) = MAPK2(h) (human, UniProt P28482 1-360)
Fms(Y969C)(h) = target: T5, Fms(Y969C)(h)

Sequence of FGFR2(h) (P21802 456-770 limits assumed): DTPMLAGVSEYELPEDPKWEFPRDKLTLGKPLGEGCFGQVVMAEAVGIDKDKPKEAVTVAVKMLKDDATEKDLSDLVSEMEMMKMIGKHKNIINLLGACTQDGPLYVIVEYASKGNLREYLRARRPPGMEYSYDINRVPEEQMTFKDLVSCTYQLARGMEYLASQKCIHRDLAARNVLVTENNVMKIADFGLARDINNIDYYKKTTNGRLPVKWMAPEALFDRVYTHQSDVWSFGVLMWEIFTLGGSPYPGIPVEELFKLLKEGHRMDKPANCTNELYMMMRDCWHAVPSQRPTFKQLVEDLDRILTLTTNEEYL
Sequence of MAPK2(h) (P28482 whole entry): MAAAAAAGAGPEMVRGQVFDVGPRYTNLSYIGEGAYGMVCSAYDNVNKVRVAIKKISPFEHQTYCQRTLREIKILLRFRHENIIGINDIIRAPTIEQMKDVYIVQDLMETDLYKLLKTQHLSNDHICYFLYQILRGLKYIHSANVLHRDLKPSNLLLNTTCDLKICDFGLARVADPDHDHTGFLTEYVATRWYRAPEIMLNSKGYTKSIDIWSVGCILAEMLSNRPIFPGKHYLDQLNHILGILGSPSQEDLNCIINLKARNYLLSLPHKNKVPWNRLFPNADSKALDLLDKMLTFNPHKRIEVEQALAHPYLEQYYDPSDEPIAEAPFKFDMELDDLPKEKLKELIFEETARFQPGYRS
Sequence of TrkB(h) (Q16620 455-822 limits assumed): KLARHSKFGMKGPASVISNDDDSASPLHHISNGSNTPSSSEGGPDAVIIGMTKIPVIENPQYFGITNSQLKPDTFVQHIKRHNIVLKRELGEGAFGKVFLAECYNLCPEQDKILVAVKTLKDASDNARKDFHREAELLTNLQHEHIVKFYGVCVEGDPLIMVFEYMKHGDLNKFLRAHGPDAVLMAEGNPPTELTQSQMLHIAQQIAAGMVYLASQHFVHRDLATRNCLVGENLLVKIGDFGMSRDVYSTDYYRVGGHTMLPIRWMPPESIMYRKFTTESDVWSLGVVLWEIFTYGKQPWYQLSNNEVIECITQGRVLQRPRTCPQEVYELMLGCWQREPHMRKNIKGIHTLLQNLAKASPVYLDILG
Sequence of MST3(h) (Q9Y6E0 whole entry): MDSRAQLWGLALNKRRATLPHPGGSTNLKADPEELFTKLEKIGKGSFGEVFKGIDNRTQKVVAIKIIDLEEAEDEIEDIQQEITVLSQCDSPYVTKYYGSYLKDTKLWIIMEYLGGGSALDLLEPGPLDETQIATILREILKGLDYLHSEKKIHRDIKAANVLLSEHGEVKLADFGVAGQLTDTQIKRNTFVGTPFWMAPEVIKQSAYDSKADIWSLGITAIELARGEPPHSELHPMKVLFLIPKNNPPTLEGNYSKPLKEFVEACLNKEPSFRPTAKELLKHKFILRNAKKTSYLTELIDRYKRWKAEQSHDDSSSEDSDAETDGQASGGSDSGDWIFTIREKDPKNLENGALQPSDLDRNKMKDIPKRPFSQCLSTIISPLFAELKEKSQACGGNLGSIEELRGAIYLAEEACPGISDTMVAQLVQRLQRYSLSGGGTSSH
Sequence of PKCβII(h) (P05771 other isoform, or with tags, fused parts or gaps): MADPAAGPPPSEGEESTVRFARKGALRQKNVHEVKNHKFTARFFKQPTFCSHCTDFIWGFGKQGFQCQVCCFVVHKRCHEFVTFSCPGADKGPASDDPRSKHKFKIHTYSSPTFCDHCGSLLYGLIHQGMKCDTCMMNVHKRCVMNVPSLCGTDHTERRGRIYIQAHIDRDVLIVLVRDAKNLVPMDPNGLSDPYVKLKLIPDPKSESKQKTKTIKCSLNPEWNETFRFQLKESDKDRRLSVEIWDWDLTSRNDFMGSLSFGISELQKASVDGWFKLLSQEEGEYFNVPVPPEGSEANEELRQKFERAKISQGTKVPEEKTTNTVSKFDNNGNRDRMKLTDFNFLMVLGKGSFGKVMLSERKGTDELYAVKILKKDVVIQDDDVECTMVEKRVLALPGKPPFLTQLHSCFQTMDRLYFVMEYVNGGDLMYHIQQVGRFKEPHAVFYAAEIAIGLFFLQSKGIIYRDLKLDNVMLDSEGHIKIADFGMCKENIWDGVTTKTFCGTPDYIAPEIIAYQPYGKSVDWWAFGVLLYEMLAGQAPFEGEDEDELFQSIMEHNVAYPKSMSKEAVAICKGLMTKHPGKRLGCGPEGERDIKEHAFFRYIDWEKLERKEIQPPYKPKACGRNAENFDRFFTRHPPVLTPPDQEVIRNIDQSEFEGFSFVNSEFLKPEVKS

| Binder | % activity, 100 µM (TrkB(h)) | % activity, 100 µM (Txk(h)) | % activity, 100 µM (PKCβII(h)) | % activity, 100 µM (MST3(h)) | % activity, 100 µM (Itk(h)) | % activity, 100 µM (FGFR2(h)) | % activity, 100 µM (IKKβ(h)) | % activity, 100 µM (TAO3(h)) | % activity, 100 µM (MAPK2(h)) | % activity, 100 µM (Fms(Y969C)(h)) |
| --- | --- | --- | --- | --- | --- | --- | --- | --- | --- | --- |
| FAKLAARLYRKALARQLGVAA [MMI-0300] | 5% | 48% | 82% | 45% | 77% | 14% | 84% | 77% | 98% | 72% |
| KAFAKLAARLYRKALARQLGVAA [MMI-0400] | 8% | 37% | 75% | 36% | 63% | 18% | 84% | 67% | 93% | 91% |
